Test [1] addresses Noggin (Homo sapiens) (UniProt Q13253). The test is described as follows: SPR. As to conditions: cited from earlier work.
The target of test [2] is Noggin (residues 28-232) (human (from the UniProt entry Q13253)) (UniProt Q13253). The test is described as follows: BLI; biotinylated Noggin (4 ug/mL) immobilised on streptavidin-coated biosensors, BMP-2 1 to 22.8 nM in solution; 30 °C; 50 mM sodium citrate pH 6.8, 150 mM NaCl, 1 mM magnesium acetate, 0.02% CHAPS; 1:1 interaction model; three repetitions. (Biolayer interferometry detects binding as a change in optical thickness at a sensor tip.)

Test [3] deals with BMP-2 N102D mutant, mature form (human). The test is described as follows: SDS-PAGE under reducing and nonreducing conditions; purified, refolded protein on 4 to 20% SDS-PAGE, Coomassie blue; covalent (disulphide) dimer.
The target in test [4] is T1, Bone morphogenetic protein 2 (BMP-2), wild type, mature form (human).
T1 sequence (P12643 whole entry, looked up): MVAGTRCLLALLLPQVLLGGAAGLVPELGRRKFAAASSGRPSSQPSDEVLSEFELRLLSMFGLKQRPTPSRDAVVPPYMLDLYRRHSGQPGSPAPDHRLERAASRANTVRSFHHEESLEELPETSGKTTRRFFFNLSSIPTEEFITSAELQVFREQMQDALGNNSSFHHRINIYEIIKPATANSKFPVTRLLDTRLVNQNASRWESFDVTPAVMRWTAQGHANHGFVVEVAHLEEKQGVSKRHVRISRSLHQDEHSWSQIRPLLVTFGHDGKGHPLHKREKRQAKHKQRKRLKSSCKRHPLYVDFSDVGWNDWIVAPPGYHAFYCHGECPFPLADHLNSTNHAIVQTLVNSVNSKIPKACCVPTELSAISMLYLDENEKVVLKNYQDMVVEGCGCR
Described as above.

This is an account of results in publication PMC9929448.

Sequence of Noggin (residues 28-232) (human (Q13253 other isoform, or with tags, fused parts or gaps): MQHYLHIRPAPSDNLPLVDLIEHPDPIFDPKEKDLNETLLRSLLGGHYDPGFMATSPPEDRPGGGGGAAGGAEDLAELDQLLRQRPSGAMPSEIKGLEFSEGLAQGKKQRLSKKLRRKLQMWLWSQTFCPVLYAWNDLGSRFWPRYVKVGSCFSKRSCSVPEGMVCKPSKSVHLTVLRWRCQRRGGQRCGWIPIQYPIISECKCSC
Sequence of Noggin (Homo sapiens) (Q13253 28-232): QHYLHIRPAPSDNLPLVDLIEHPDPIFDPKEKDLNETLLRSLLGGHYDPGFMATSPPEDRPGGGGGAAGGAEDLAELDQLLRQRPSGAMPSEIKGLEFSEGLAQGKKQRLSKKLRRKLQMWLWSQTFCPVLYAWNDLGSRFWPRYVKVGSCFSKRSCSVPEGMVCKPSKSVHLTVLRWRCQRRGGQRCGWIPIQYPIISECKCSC

As to BMP-2 (from UniProt P12643), in test [1], the Kd (in general, a measure of binding affinity in units of concentration) was 0.6 nM.
In the case of “BMP-2 N102D mutant, mature form (ligand)”, in test [2], the Kd is 0.3 nM; the koff – broadly, the first-order rate constant of dissociation – was 0.0007 s⁻¹; the kon – broadly, a measure of how fast the partners come together – turned out to be 2.3e+06 M⁻¹ s⁻¹. Further, the stoichiometry N (as a rule, a count of units in the complex or per binding partner) in test [3] was 2.
As for “Bone morphogenetic protein 2 (BMP-2), wild type, mature form (ligand)”, in test [2], the dissociation constant Kd came to 0.36 nM, the koff was 0.00042 s⁻¹, the kon is 1.2e+06 M⁻¹ s⁻¹ and the stoichiometry N came to 1. Also, in test [4], the stoichiometry N stood at 2.
